Data from publication PMC11494953 (2024).

Molecular target: EV-A71 2C protein (analyte of the SPR assay) (Enterovirus A71 (strain ), UniProt Q66478 1112-1440)
Assay: SPR

B1: UBE3C protein (TP315110, ORIGENE) (enzyme)
chain: MFSFEGDFKTRPKVSLGGASRKEEKASLLHRTQEERRKREEERRRLKNAIIIQSFIRGYRDRKQQYSIQRSAFDRCATLSQSGGAFPIANGPNLTLLVRQLLFFYKQNEDSKRLIWLYQNLIKHSSLFVKQLDGSERLTCLFQIKRLMSLCCRLLQNCNDDSLNVALPMRMLEVFSSENTYLPVLQDASYVVSVIEQILHYMIHNGYYRSLYLLINSKLPSSIEYSDLSRVPIAKILLENVLKPLHFTYNSCPEGARQQVFTAFTEEFLAAPFTDQIFHFIIPALADAQTVFPYEPFLNALLLIESRCSRKSGGAPWLFYFVLTVGENYLGALSEEGLLVYLRVLQTFLSQLPVSPASASCHDSASDSEEESEEADKPSSPEDGRLSVSYITEECLKKLDTKQQTNTLLNLVWRDSASEEVFTTMASVCHTLMVQHRMMVPKVRLLYSLAFNARFLRHLWFLISSMSTRMITGSMVPLLQVISRGSPMSFEDSSRIIPLFYLFSSLFSHSLISIHDNEFFGDPIEVVGQRQSSMMPFTLEELIMLSRCLRDACLGIIKLAYPETKPEVREEYITAFQSIGVTTSSEMQQCIQMEQKRWIQLFKVITNLVKMLKSRDTRRNFCPPNHWLSEQEDIKADKVTQLYVPASRHVWRFRRMGRIGPLQSTLDVGLESPPLSVSEERQLAVLTELPFVVPFEERVKIFQRLIYADKQEVQGDGPFLDGINVTIRRNYIYEDAYDKLSPENEPDLKKRIRVHLLNAHGLDEAGIDGGGIFREFLNELLKSGFNPNQGFFKTTNEGLLYPNPAAQMLVGDSFARHYYFLGRMLGKALYENMLVELPFAGFFLSKLLGTSADVDIHHLASLDPEVYKNLLFLKSYEDDVEELGLNFTVVNNDLGEAQVVELKFGGKDIPVTSANRIAYIHLVADYRLNRQIRQHCLAFRQGLANVVSLEWLRMFDQQEIQVLISGAQVPISLEDLKSFTNYSGGYSADHPVIKVFWRVVEGFTDEEKRKLLKFVTSCSRPPLLGFKELYPAFCIHNGGSDLERLPTASTCMNLLKLPEFYDETLLRSKLLYAIECAAGFELS
  Kd: 72.1 µM
